The results in this text go back to patent US20220243288, “BIOSENSORS FOR POLYKETIDE EXTENDER UNITS AND USES THEREOF” (NORTH CAROLINA STATE UNIVERSITY, published 2022).

For the series, the target named is T1, FapR (Bacillus subtilis, UniProt O34835 SEQ:1-188).
T1 sequence: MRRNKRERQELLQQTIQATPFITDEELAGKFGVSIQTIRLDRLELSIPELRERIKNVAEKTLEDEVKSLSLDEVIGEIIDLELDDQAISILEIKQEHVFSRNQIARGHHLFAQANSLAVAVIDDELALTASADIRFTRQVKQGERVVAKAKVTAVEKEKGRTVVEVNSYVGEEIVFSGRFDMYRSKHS
The experiment in a line: EMSA; near-complete shift; 2 pmol fapO, 6 pmol FapR (text also says two-fold excess); 10 mM Tris pH 7.5, 100 mM KCl, 30 C; released by 200 uM malonyl-CoA or methylmalonyl-CoA. The following applies: tags: C-terminal His6 (pET28a); chain copies: 2. The text has this: The saturated alkyl derivatives emCoA and bmCoA were the poorest effectors, based on the fluorescence data. This robust activity of pgmCoA is due in part to the increased rigidity of the alkyne side-chain or additional interactions of the alkynyl […] with the FapR ligand-binding site, with the […] side-chain of the nearby Phe99 (FIG. 5A). Gratifyingly, de-repression was not observed in the presence of propionyl-CoA and was indistinguishable from the (−) thioester control. To provide further evidence that FapR is de-repressed by derivatives of mCoA, FapR was tested in vitro for DNA-binding and release by electrophoretic mobility shift assay (EMSA) in the presence of mCoA or mmCoA. Using purified wild-type FapR protein, EMSA was run with a 40 bp DNA fragment containing the fapO binding site (FIG. 7). […] Incubation with the FapR-fapO complex with mmCoA achieved a similar level of de-repression as that observed with mCoA (FIG. 7).
Electrophoretic mobility shift assay. The fapO oligonucleotides 5′-[…]-3′ (SEQ ID NO:30) and 5′-[…]-3′ (SEQ ID NO:31) were annealed per standard procedure. […] Reactions were then analyzed by electrophoresis on a 6% PAGE gel at 220 V. The gel was stained with SYBR Green I and imaged on a Typhoon FLA 7000.

B1: 40 bp fapO fragment (dsDNA)
DNA 1: CCTAGGACTATTAGTACCTAGTCTTAATTGTCCGGCATCC
DNA 2: GGATGCCGGACAATTAAGACTAGGTACTAATAGTCCTAGG
In the case of B1, the binding result was “binds”.
